The record followed here is publication PMC5874051, “Gene cloning of a neutral ceramidase from the sphingolipid metabolic pathway based on transcriptome analysis of Amorphophallus muelleri” (PLoS ONE, 2018).

Usually Km stands for the substrate concentration at which the rate is half of its maximum.

Substrate in the series: CCCCCCCCCCCCC/C=C/[C@@H](O)[C@H](CO)NC(=O)CCCCCCCCCCCNc1ccc([N+](=O)[O-])c2nonc12
Briefly: hydrolysis of NBD-ceramide, reverse-phase HPLC with DAD detector; Michaelis-Menten and Lineweaver-Burk. Conditions: 37 °C, 1 h, pH of the kinetic assay not clearly stated, labelled compound. The series is classed as biochemical, Amorphophallus muelleri.

B1: AmCDase (A. muelleri neutral ceramidase) (Amorphophallus muelleri) (protein)
chain: MEASSCSRDYKDHDGSFKIWLCVFLDLVLLNGRLVSRSSDYLVGLASYDITGPAADVNMMGYANAEQIVSGVHFRLRARAFIVAEPGGKRVAFVNLDACMASQLVTIKVLERLKTRYGDLYTAENVAISGIHTHAGPGGYLQYVTYIVTSLGFVRQSFDIIVDGIERSIIQAHDNLRPGSIIVNKGELLDAGVNRSPSAYLNNPYDERKKYSYDVDKEMTLLKFVDDEWGPVGSFNWFATHGTSMSRTNSLISGDNKGAAARFMEDWFKQKSTEPAEHDLFRSDDKLNEIPRRVSIIIPRPRENYKNFTQLASSFPATGGERVTSFLSSTQRVRSIFRQGNRPAFVSAFCQSNCGDVSPNVLGAFCIDTGRPCDFNHSTCNGKNELCYGRGPGYPDEFESTRIIGERQLKKAVDLFDTASEQIKGKVDYRHTYINFSQLKVTIPSSNGSEQVVKTCPAAMGFAFAAGTTDGPGAFDFTQGDEKGNPFWRLVRNLLKTPDKVQVECQLPKPILLDTGEMKQPYDWAPSILPLQILRIGQLVILSVPGEFSTMAGRRLRDAVKMMLTSSGNNEFDNNVHIVIAGLTNTYSQYVTTFEEYEIQRYEGASTLYGPHTLSGYIQEFKKLAAALLNKQTVEPGPAPPDLLKKQMSLLPGVVMDAAPLGFNFGDVSDDVPALSKFKEGDKVSATFWSGCPRNDLLTEGTFALVERLNGVDTWVPAYDDDDFSLRFRWSRPSKFSPYSQATIEWRIPKDAPAGVYRLRHSGATKGLIGCINHFTGTSSAFAVR
notes: Ni-NTA and Superdex 200
On to B1, for which the Km was determined as 34.51 µM.
